Measurements reported in US20160303217A1 (published 2016).

B1: porcine transferrin (ligand)
chain: VAQKTVRWCTISNQEANKCSSFRENMSKAVKNGPLVSCVKKSSYLDCIKAIRDKEADAVTLDAGLVFEAGLAPYNLKPVVAEFYGQKDNPQTHYYAVAVVKKGSNFQWNQLQGKRSCHTGLGRSAGWIIPMGLLYDQLPEPRKPIEKAVASFFSSSCVPCADPVNFPKLCQQCAGKGAEKCACSNHEPYFGYAGAFNCLKEDAGDVAFVKHSTVLENLPDKADRDQYELLCRDNTRRPVDDYENCYLAQVPSHAVVARSVDGQEDSIWELLNQAQEHFGRDKSPDFQLFSSSHGKDLLFKDSANGFLKIPSKMDSSLYLGYQYVTALRNLREEISPDSSKNECKKVRWCAIGHEETQKCDAWSINSGGKIECVSAENTEDCIAKIVKGEADAMSLDGGYIYIAGKCGLVPVLAENYKTEGENCVNTPEKGYLAVAVVKKSSGPDLNWNNLKGKKSCHTAVDRTAGWNIPMGLLYNKINSCKFDQFFGEGCAPGSQRNSSLCALCIGSERAPGRECLANNHERYYGYTGAFRCLVEKGDVAFVKDQVVQQNTDGKNKDDWAKDLKQMDFELLCQNGAREPVDNAENCHLARAPNHAVVARDDKVTCVAEELLKQQAQFGRHVTDCSSSFCMFKSNTKDLLFRDDTQCLARVGKTTYESYLGADYITAVANLRKCSTSKLLEACTFHSAKNPRVETTT
B2: H. parasuis TbpB 27-577 (amino acid 27-577) derived from the Nagasaki strain Hp5, purified recombinant truncated protein (protein)
chain: FDLEDVQPNKTTGVSKEEYQDVETDKKVKEQLGELMEPALGYVVKVPVSQSGARRTEISNPEAITDEDLKKIPNHETIKSVAEQNYGWVVDKTADKTMKYVRSGYAIDVDHYGTRDKGYVFYKGINPSKELPQGLVLTYQGEWDFTSDANLDAKRPNSNPEFNGYGPGQRIATTSANAKGRTYTSEFEVDFSAKKLKGKLNSKTANTESLERYSIEAEPKGNRFRGKAIAKDTSDAILGKSSDYLEGGFYGPKAEELAGKFITNDKSLFAVFSAKHNGSNVDTVRIIDASKIDLTHFNSSELTNFGDASVLIIDGKKMDLAGTDFKNSKTIEINGKTMVAVACCSNLEYMKFGQLWQKEGETAKDNSLFLQGERTTTDKMPKGGNYKYIGTWDAQVSKENNWVATADDDRKAGYRTEFDVDFGNKNLSGKLFDKNGVNPVFTVDAKINGNGFTGKAKTSDAGFALDSDSSRYDNVKFSDVAVNGGFYGPTAAELGGQFFHKSDNGSVGAIFGAKRQVKK

Assays:
[1] = target: A. pleuropneumoniae TbpB 26-528 (amino acid 26-528) derived from strain H87, purified recombinant truncated …; assay: SPR
[2] = target: T1, A. pleuropneumoniae TbpB 20-528 (amino acid 20-528) derived from strain H49, purified recombinant truncated …; assay: SPR
[3] = target: T1, A. pleuropneumoniae TbpB 20-528 (amino …); assay: ITC
porcine transferrin = target: B1; assay: BLI

Binder	Kd [1] [nM]	Kd [2] [nM]	Kd [3] [nM]	Kd (porcine transferrin) [nM]
B1	60	44	55	
B2				21
